Data taken from PMC10573625, “Interaction of VvDELLA2 and VvCEB1 Mediates Expression of Expansion-Related Gene during GA-Induced Enlargement of Grape Fruit”.
Residue numbers refer to the chain shown, from its start.

Columns and labels:
VvCEB1 [1] = target: T1, VvCEB1 (UniProt I6QS36 1-270); experiment: EMSA; Binding buffer, salt, pH and temperature not stated; Beyotime chemiluminescent biotin-labelled nucleic acid detection kit; probes annealed at 72 C for 30 min; conditions: protein: recombinant; tags: His (pET-30a(+)); chain copies: 2; label: 5'-biotin; blunt
T1 sequence: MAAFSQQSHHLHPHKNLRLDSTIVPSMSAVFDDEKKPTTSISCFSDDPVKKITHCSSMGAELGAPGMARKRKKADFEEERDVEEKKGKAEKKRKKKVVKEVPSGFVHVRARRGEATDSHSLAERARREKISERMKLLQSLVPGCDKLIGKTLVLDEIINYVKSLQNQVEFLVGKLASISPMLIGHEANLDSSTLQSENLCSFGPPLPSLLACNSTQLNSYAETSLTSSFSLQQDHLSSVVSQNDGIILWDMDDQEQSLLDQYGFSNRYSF

VvCEB1 [2] = target: T1, VvCEB1; experiment: competition; unlabelled competitor against biotin probe N4; band significantly weakened; Binding buffer, salt, pH and temperature not stated; Beyotime chemiluminescent biotin-labelled nucleic acid detection kit; probes annealed at 72 C for 30 min; conditions: protein: recombinant; tags: His (pET-30a(+)); chain copies: 2; blunt
VvCEB1 [3] = target: T1, VvCEB1; experiment: EMSA; band disappeared completely with mutated probe; Binding buffer, salt, pH and temperature not stated; Beyotime chemiluminescent biotin-labelled nucleic acid detection kit; probes annealed at 72 C for 30 min; conditions: protein: recombinant; tags: His (pET-30a(+)); chain copies: 2; blunt
VvCEB1 [4] = target: T1, VvCEB1; experiment: competition; unlabelled competitor against biotin probe N1; band significantly weakened; Binding buffer, salt, pH and temperature not stated; Beyotime chemiluminescent biotin-labelled nucleic acid detection kit; probes annealed at 72 C for 30 min; conditions: protein: recombinant; tags: His (pET-30a(+)); chain copies: 2; 5' overhang 1 nt as printed

B1: PVvEXPA11-biotin (dsDNA)
DNA 1: CTACTTGCAGAGATCACATGTGAGGCTGTTGCATT
DNA 2: AATGCAACAGCCTCACATGTGATCTCTGCAAGTAG
binding result (VvCEB1 [1]): binds

B2: PVvEXPA11 (unlabelled competitor) (dsDNA)
DNA 1: B1 DNA 1
DNA 2: B1 DNA 2
binding result (VvCEB1 [2]): binds

B3: PVvEXPA11-mut (dsDNA)
DNA 1: B1 DNA 1 with G20T, G22T
DNA 2: B1 DNA 2 with C14A, C16A
binding result (VvCEB1 [3]): no binding

B4: PVvEXPA8-biotin (dsDNA)
DNA 1: TGGTAGTCTAACTTGAACAAAACATATGCATGTGCAG
DNA 2: CTGCACATGCATATGTTTTGTTCAAGTTAGACTACCA
binding result (VvCEB1 [1]): binds

B5: PVvEXPA8-mut (dsDNA)
DNA 1: B4 DNA 1 with G32T, G34T
DNA 2: B4 DNA 2 with C4A, C6A
binding result (VvCEB1 [3]): no binding

B6: PVvEXPA8 (unlabelled competitor) (dsDNA)
DNA 1: TTGGTAGTCTAACTTGAACAAAACATATGCATGTGCAG
DNA 2: B4 DNA 2
binding result (VvCEB1 [4]): binds
